These results are taken from publication PMC5905600, “Structural and Immunodiagnostic Characterization of Synthetic Antigen B Subunits From Echinococcus granulosus and Their Evaluation as Target Antigens for Cyst Viability Assessment” (Clinical Infectious Diseases: An Official Publication of …, 2017).

“And” between values parts separate entries of the source, which are not always exact repeats. Equal values may be shown once.

Data set [1] addresses Antigen B subunit 2 (AgB2), synthetic (Echinococcus granulosus). Briefly: SEC; single synthetic subunits; 50 mM sodium phosphate, 150 mM NaCl, pH 7.4; AKTA Explorer 10; size by calibration with standard proteins (apparent molecular weight). For orientation: SEC sorts molecules by how far they enter the pores of the column.
Data set [2] concerns the target Antigen B subunit 1 (AgB1), synthetic (Echinococcus granulosus). The data set can be described thus: cross-linking; subunits with a 10-fold or a 100-fold excess of EDC; SDS-PAGE under reducing conditions; western immunoblotting with WSH serum.
Data set [3] shares this target. Briefly: cross-linking; each single subunit with a 100-fold molar excess of EDC; SDS-PAGE in reducing and nonreducing conditions; bands digested in situ, LC-MS/MS, cross-linked peptides identified with StavroX.
Data set [4] concerns the molecule itself. Briefly: SEC; single synthetic subunits; 50 mM sodium phosphate, 150 mM NaCl, pH 7.4; AKTA Explorer 10; size by calibration with standard proteins (apparent molecular weight).

Consider “Antigen B subunit 2 (AgB2), synthetic (natural protein)”, for which, in data set [1], the stoichiometry N was 6.8 units. On to “Antigen B subunit 1 (AgB1), synthetic (natural protein)”, for which the stoichiometry N in data set [2] is 3 and 4 and 5; in data set [3] it was 2 and 3 and 4.

B1: Antigen B subunit 3 (AgB3), synthetic (natural protein)
chain: DDDDEVTKTKKGVMKAISEIKHFFQSDPLGKKLVEVMKDVASVCEMVRKKARMALKEYVRKLVKEDE
With B1, the “stoichiometry N” value in data set [4] was 6.6 units.

B2: Antigen B subunit 4 (AgB4), synthetic (natural protein)
chain: KAEPERCKCLIMRKLGEIRDFFRSDPLGQKLAALGRDLTAICQKLQLKVHEVLKKYVKDLLEEEDEDDLK
Turning to B2, the “stoichiometry N” value in data set [4] was determined as 6.

By stoichiometry N is commonly meant a count of units in the complex or per binding partner.
